Assay results as given in publication PMC3463842 (The EMBO Journal, 2012).

Biological target: ubiquitin^TAMRA (C-terminal TAMRA-labelled ubiquitin) (UniProt P0CG48 1-76, TAMRA label at the C-terminus)
Test: fluorescence polarisation

Binder | Kd
HOIP^RBR-LDD (699–1072), as used in the FP assay (domain or fragment) CAVCGWALPHNRMQALTSCECTICPDCFRQHFTIALKEKHITDMVCPACGRPDLTDDTQLLSYFSTLDIQLRESLEPDAYALFHKKLTEGVLMRDPKFLWCAQCSFGFIYEREQLEATCPQCHQTFCVRCKRQWEEQHRGRSCEDFQNWKRMNDPEYQAQGLAMYLQENGIDCPKCKFSYALARGGCMHFHCTQCRHQFCSGCYNAFYAKNKCPEPNCRVKKSLHGHHPRDCLFYLRDWTALRLQKLLQDNNVMFNTEPPAGARAVPGGGCRVIEQKEVPNGLRDEACGKETPAGYAGLCQAHYKEYLVSLINAHSLDPATLYEVEELETATERYLHVRPQPLAGEDPPAYQARLLQKLTEEVPLGQSIPRRRK | 118 µM
HOIP^RBR-LDD C930A (domain or fragment) CAVCGWALPHNRMQALTSCECTICPDCFRQHFTIALKEKHITDMVCPACGRPDLTDDTQLLSYFSTLDIQLRESLEPDAYALFHKKLTEGVLMRDPKFLWCAQCSFGFIYEREQLEATCPQCHQTFCVRCKRQWEEQHRGRSCEDFQNWKRMNDPEYQAQGLAMYLQENGIDCPKCKFSYALARGGCMHFHCTQCRHQFCSGCYNAFYAKNKCPEPNCRVKKSLHGHHPRDALFYLRDWTALRLQKLLQDNNVMFNTEPPAGARAVPGGGCRVIEQKEVPNGLRDEACGKETPAGYAGLCQAHYKEYLVSLINAHSLDPATLYEVEELETATERYLHVRPQPLAGEDPPAYQARLLQKLTEEVPLGQSIPRRRK | 83 µM
